According to the nanobody polyreactivity screen of Harvey et al. (2022):

Assay: yeast display, Sf9 membrane polyspecificity reagent, FACS + sequencing; frameworks hold sequencing errors
Summary of the method: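 A synthetic nanobody library was expressed on Saccharomyces cerevisiae BJ5465 by galactose induction for 36–48 hours. The library was stained for 1 hour at 4 °C with 10% biotinylated, detergent-solubilized Sf9 membrane reagent and enriched with streptavidin microbeads before FACS. Low and high (top ~1%) gates were set on anti-HA fluorescence for expression and streptavidin fluorescence for reagent binding, and each polyreactivity label reflects the gate of origin.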

| Sequence | polyreactivity (PSR sort gate) |
| --- | --- |
| QFQLVESGGGLVQAGGSLRLSCAASARTFYRYAMGWYRQAPGKERELVASINRGGSTIYADSVKGRFSISRDNAKNTVYLHMNSLKPEDTAVFYCACYCYCYWGQGTQVTVSS | low polyreactivity |
| QFQLVESGGGLVQAGGSLRLSCAASGFIFSNYAMGWYRQAPGKERELVASISWGGGSTYYADSVKGRFTISRDNAKNTVYLQMNSLKPEDTAVYYCATVRSLYSYDYWGQGTQVTVSS | high polyreactivity |
| QFQLVESGGGLVQAGGSLRLSCAASGFTFVSNDMGWYRQAPGKVRELVAAISQGGGSTYYADSVKGRFTISRDNAKNTVYLQMNSLKPEDNAVYYCDAEDVYFGYDYSGQGTQVTVSS | low polyreactivity |
| QFQLVESGGGLVQAGGSLRLSCAASGFTITFYAKGWYRQAPGKERELVAAIRTSDGRTYYADSVKGRFTISRDNAKNTVYLQMNSLKPEDTAVYYCAAQVYRPRARYYEYDYWGQGTQVTVSS | high polyreactivity |
| QFQLVESGGGLVQAGGSLRLSCAASGFTIYIYAKGWYRQAPGKERELVAAINFRGGSTYYADSVKGRFTISGDNAKKTVYLQLNSLKPEDTAVYYCAAVPRTYSGYYYWGQGTQVSVSS | high polyreactivity |
| QFQLVESGGGLVQAGGSLRLSCAASGIIDGNARGWYRQAPGKEREFVATISVNDGNTYYADSVKGRFTISRDNAKNTVYLQMNSLKPEDTAVSYCATPTVYVPIPDLGDYWGQGTQVTVSS | low polyreactivity |
| QFQLVESGGGLVQAGGSLRLSCAASGIIFDYNAMGWYRQAPGKERELVAAITRGGSTYYADSVNGRFTISRDNAKNTVYVQMTSLKPEDTAVYYCKAVLPVHWSWYDYWGQGTQVTVSS | low polyreactivity |
| QFQLVESGGGLVQAGGSLRLSCAASGIIFNRNVMRWYRQAPAKERELVAAITWGGGRTYYADSVKGRFTISRDNAKNTVYLQMNSLIPVDTAVYFCAARSRGSSRFDYWGQGTQVTVSS | high polyreactivity |
| QFQLVESGGGLVQAGGSLRLSCAASGIIFRYYGMGWYRQAPGKERELVARILWTGGSTYYADSVKGRFTISRDNAKNTVYFQMNSLKPEDTAVYYSAADIWQYSRIANYHPYEYWGQGTQVTVSS | low polyreactivity |
| QFQLVESGGGLVQAGGSLRLSCAASGITFVDNAMGWYRQAPGKERELVAAITNSGSTYADSVKGRFTISRDNAKNTVYVQMNSLKPEDTAVYYCAADYYILLTKSDRLFGSWGQGTQVTVSS | low polyreactivity |
| QFQLVESGGGLVQAGGSLRLSCAASGNTFINYAMGWYRQATRKEREVVAAISKRGGSTYYADSVKGRFTISRDNAKNTVYLQMNSLKPEDTAVYYCAARLKTYKEGDYCGQGTQVTVSS | high polyreactivity |
| QFQLVESGGGLVQAGGSLRLSCAASGRIFKTYTMGWYRQAPGKERELVAVITSGGGTYYADSVKGRFTISRDNAKNTVYLQMNSLKPEDTAVYYCAARGMESPYGYWGQGTQVTVSS | low polyreactivity |
| QFQLVESGGGLVQAGGSLRLSCAASGRIFSLNAMGWYRQAPGKESELVAAITSTGGTTYYADSVKGRFTISRDNAKNTVYLQMNSLKPEDTAVYYCAADYYSYAWHGWYYSDHYDYWGQGTQVTVSS | low polyreactivity |
| QFQLVESGGGLVQAGGSLRLSCAASGRIFTYYAMGWYRQAPGKEWELVAAISTSGGSTYYADSVKGRFTISRDNANNTVYLQMNSLKPEDTAVYYCAKVYPPRYYRDYNYWGQGTQVTVSS | high polyreactivity |
| QFQLVESGGGLVQAGGSLRLSCAASGRIFVINAMGWYRKATGIETELVAAISSSGGSTSYADSVKGRFTISRDNAKNTVYLQMNSLKPEDTAVYYCADKPRVRRDDGYYWGQGTLVTVSS | high polyreactivity |
| QFQLVESGGGLVQAGGSLRLSCAASGRIFYPYAMGWYRQATGKEREFVATIRARGGDSTSYADSVKGRFTISRDNAKNTVYLQMNSLKPEDTGVYYCAALFYTYRWRYYVYHLDYWGHGTQVTVSS | low polyreactivity |
| QFQLVESGGGLVQAGGSLRLSCAASGRIFYYNAMGWDRQAPGKERELVASISTGGGSTYYADSVKGRFTISRDNAKNTVYLQMNSLKTEDTAVYYCAARALTRSVPYGFYYWGQGTQVTVSS | high polyreactivity |
| QFQLVESGGGLVQAGGSLRLSCAASGRTFAWNAMGWYRQAPGKERELVAAISYNGGRTYYADSVKGRFTISRDNAKNTVYFQMNSLKPEDTAVYYCAAQRYGYWGQGTQVTVSS | high polyreactivity |
| QFQLVESGGGLVQAGGSLRLSCAASGRTFGFYAMGWYRQAPGKERELVASITWRGGRTYYADSVKGRFTISRDNAKNTVYLQMNSLKPEDTAVYYCAAVTFSYDGYDYWGQGTQVTVSS | low polyreactivity |
| QFQLVESGGGLVQAGGSLRLSCAASGRTFGVYAMGWYRQAPGKERELVAAIRWSGGGTYYADSVKGRFTISRDNAKNTVYLQMNSLKPEDTAVYYCAADSLLVLFDYWGQGTQVTVSA | low polyreactivity |
| QFQLVESGGGLVQAGGSLRLSCAASGRTFRGYAMGWYRQAPGKERELVPAITWRGGSTYYADSVKGRFTISRDNAKNTVYLQMKSLKPEDTAVYYCNTLVWSYLGGYYSRYDYWGQGTQVTVSS | high polyreactivity |
| QFQLVESGGGLVQAGGSLRLSCAASGRTFRGYAMGWYRQATGTERELVAAITWRGGSTYYADSVKGRFTISRDNEKNTVYLQMNSLKPEDTAVYYCNTLVWSYLGGYYSRYDYWGQGTQVTVSS | high polyreactivity |

| Sequence | polyreactivity (PSR sort gate) |
| --- | --- |
| QFQLVESGGGLVQAGGSLRLSCAASGRTLYGYAMGWYRQAPGKERELVAVISGRGGSTYYADSVKGRFTISRDNAKNTVYLQMNSLKPEDTAAYFCAAVVHQGLSVRYGYWGQGTQVTVSS | high polyreactivity |
| QFQLVESGGGLVQAGGSLRLSCAASGSIFDYYDLGWSRKAPGKERELGAAINWSGGITYYADSVKGRFTISRDNAKNTVYLQMNSLKPEDTGVYYCAADWYQWVYSSSITSFDYWGQGTQVTVSS | low polyreactivity |
| QFQLVESGGGLVQAGGSLRLSCAASGSIFGGYAMGWYRQAPGKEREFVAAITRSGVSTYYADSVKGRFTISRDNEKNTVYLQMNSLKPEDTAVYYCAADQTAWRLRVYLRQYRYEYWGQGTQVTVSS | high polyreactivity |
| QFQLVESGGGLVQAGGSLRLSCAASGSIFGGYAMGWYRQAPGKERELVAAISYRGASTYYADSVKGRFTISRDNAKNTVYLLMNSLKPEDTAVYYCAVAARTRARFLYGYDYWGQGTQVTVSS | low polyreactivity |
| QFQLVESGGGLVQAGGSLRLSCAASGSIFKRYAMGWYRQAAGKERELVAAISSRGGNTYYADSVKGRFTISRDNAKNTVYLQMNSLKPEDTAVYYCAAYLWKSKRKLDYWGQGTQVTVSS | high polyreactivity |
| QFQLVESGGGLVQAGGSLRLSCAASGSIFKYYVMGWYRQAPGNERELVATITSDGGTNYADSVKGRFTISRDNAKNTVYLQMNSLKPEDTAVYYCNAASRRGSRKQAKYDYWGQGTQVTVSS | low polyreactivity |
| QFQLVESGGGLVQAGGSLRLSCAASGSIFQSYAMVWYRQAPGKERELVAAITRSGGRTYYADSVKGRFTISRDNAKNTVYLQMNSLKPEDTAVYFCAAFGWGYGYWGQGTQVTVSS | high polyreactivity |
| QFQLVESGGGLVQAGGSLRLSCAASGSTFGVYAMGWYRQAPGKERELVATINSGGSTNYADSVKGRFTISRDNAKNTVYLQMNSLKPEDTAVYYCAAGPFWQDFYVYEYDYWGQGTQVTVSS | low polyreactivity |
| QFQLVESGGGLVQAGGSLRLSCAASGSTFNYNAMGWYRQAPGIERELVAAISSSAGSTYYADSVKGRFTISRDNAKNTVYLQMNILKPEDTAVYYCANGGSSRVRTEGDYWGQGTQVTVSS | low polyreactivity |
| QFQLVESGGGLVQAGGSLRLSCAASGSTFVYNAMGWDRHAPGKERELVAAISRGGGITYYADSVKGRFTISRDKAKNSVYFQMHSLKPEDTAVYYCQYLSRGLNTYRSSQGDDDYWGHGTQVTVSS | high polyreactivity |
| QFQLVESGGGLVQAGGSLRLSCAASRRTFTYYDMGWYRQAPGNEGELVSAISRRGGSTYYADSVKGRFTISRDNAKNTVYFQMNSLKPEDTAVYYCAAEVRLFSYTYSFFRYEYWGQGTHVTVSS | high polyreactivity |
| QFQLVESGGGLVQAGGSLRLSCAAYGSIFMYYAMGWYIQAPGKERELVAAIRRGGNTNYADSVKGRFTISRDNAKNTVYLQMNSLKPEDTAVYYCAAAQYSRYSRVPNYYAGTYYYWGQGTQVTVSS | low polyreactivity |
| QFQLVESGGGLVQAGGSLRLSCESSGFTFYKYAIGSYRKAPGKERELVAAISRRGTSTYYADSVKGRFTISRDNAKNTVYLQMNSLNPEDTAVYYCNRDVSLSAFDYWGQGTQVTVSS | high polyreactivity |
| QFQLVESGGGLVQAGGSLRLSCPASGRIFYYYSMGWYRQAPGKEREFVAAITGRGGSTYYADSVKGRFTISRDNAKYTVYLQMNSLKPEDTADYYCNAGQYFEYYGWYSRYGYWGQGTQVTVSS | low polyreactivity |
| QFQLVESGGGLVQAGGTLRLSCAASGSTFYHYPLGWYRQAPGTVRQLVARITSSSGSTYYADSVKGRFTISRDNAKNTVYLQMYSLKPEDTAVYYCAASYYIVPYLTYGYWGQGTQVTVSS | low polyreactivity |
| QFQLVESGGGLVQAGGTLRLSCAASRRIFIHYAMGLSRQAPGKERELVSAISASGGTTNYADSVKGRFTISRDNAKNTVYLQLKSQKQEDTAVYYCAAEGYRSWRGLLSRYYYWGQGTQVTVSS | high polyreactivity |
| QFQLVESGGGLVQAGRSLRLSCAASGSIFWSNAMGWYRQAPGKERELVAAITTSDGSKYYADSVKGRFRISRDNANNTVYLQMNILKPEDTAVYYCAADTYFVCYGYYYWGQGTQVTVSS | low polyreactivity |
| QFQLVESGGGLVQAGVVSLKLCCLRKHFIYYAMAWSRQAPWKDTELVAGINSGGSTKYADSVKRRFTISRDNAKNSVYLQMNSLKPEDTAVYYCNADSYSPVIQEYDYWGQGTQVTVSS | low polyreactivity |
| QFQLVESGGGLVQSGGSLRLSCAASGFIFRSYAMGWYRQAPVKERELVAVISRRGVNTHYADSVKGRFTISRDNAKNTVYLQMNSLKPEDTAVYYCAKGLTAVGDYWGQGTQVTVSS | high polyreactivity |
| QFQLVESGGRLDQAGGSLRLSCAASSSIFDDYAMGWYRQAPGKERELVAAISWSGGSTYYADSVQGRFTISRDNPNHTVYLQMNSLKREDTAVYYCAAYAYDYLYGEYYWGQGTQVTVSS | low polyreactivity |
| QFQLVESGGRLVQPGGSLRLSCAASGGIFYGYAMGWYRKAPGKERELVAAISSTGGRTYYADSVKGRFTISRDNAKNTVYLQMNSLKPEDTAVSYCAAEDFTRQFEYWGQGTQVTVSS | low polyreactivity |
